What follows are sequences tested on Escherichia coli TOP10 (assay: shrunken log2 fold change of peptide-encoding DNA abundance (4.5 h post-induction vs induction); higher = less antimicrobial activity (less host growth inhibition)). Details: time post-induction: 4.5 h; library: site-saturation at positions 5, 18, 19, 20.
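Also: peptides expressed intracellularly from a pBAD plasmid library in pooled LB shake-flask culture, induced with 0.3% L-arabinose, DNA abundance read by NGS, three biological replicates, DESeq2 with apeglm shrinkage.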

Sequence	shrunken log2 fold change
RRIRLRPPRLPRPRPRPMRTPRP	0.3
RRIRLRPPRLPRPRPRPRELPRP	0.765
RRIRCRPPRLPRPRPRPHICPRP	-0.272
RRIRKRPPRLPRPRPRPTDFPRP	0.118
RRIRVRPPRLPRPRPRPNMTPRP	-0.256
RRIRVRPPRLPRPRPRPKNKPRP	-0.169
RRIRRRPPRLPRPRPRPPVTPRP	0.538
RRIRQRPPRLPRPRPRPYPEPRP	-0.0761
RRIRHRPPRLPRPRPRPNRPPRP	-0.022
RRIRVRPPRLPRPRPRPFFMPRP	-0.339
RRIRIRPPRLPRPRPRPWTIPRP	-0.0831
RRIRQRPPRLPRPRPRPRFFPRP	0.0926
RRIRCRPPRLPRPRPRPGVKPRP	-0.0157
RRIRWRPPRLPRPRPRPTAHPRP	0.306
RRIRSRPPRLPRPRPRPVRNPRP	0.0299
RRIRYRPPRLPRPRPRPSDHPRP	-0.42
RRIRKRPPRLPRPRPRPALMPRP	0.32
RRIRDRPPRLPRPRPRPPCWPRP	0.407
RRIRNRPPRLPRPRPRPLDGPRP	-0.0308
RRIRSRPPRLPRPRPRPHTRPRP	-0.453
RRIRRRPPRLPRPRPRPCYNPRP	-0.41
RRIRRRPPRLPRPRPRPQSKPRP	-0.0754
RRIRDRPPRLPRPRPRPKYSPRP	-0.0792
RRIRERPPRLPRPRPRPPHYPRP	-0.159
RRIRKRPPRLPRPRPRPNCFPRP	0.274

Sequence	shrunken log2 fold change
RRIRMRPPRLPRPRPRPTFQPRP	0.428
RRIRKRPPRLPRPRPRPVPMPRP	0.355
RRIRHRPPRLPRPRPRPTEIPRP	0.0223
RRIRARPPRLPRPRPRPFETPRP	0.0585
RRIRPRPPRLPRPRPRPMPLPRP	-0.0538
RRIRDRPPRLPRPRPRPHRDPRP	-0.0968
RRIRFRPPRLPRPRPRPPWYPRP	-0.3
RRIRRRPPRLPRPRPRPATSPRP	0.0892
RRIRSRPPRLPRPRPRPEFSPRP	0.203
RRIRCRPPRLPRPRPRPQIRPRP	-0.332
RRIRERPPRLPRPRPRPTLQPRP	0.125
RRIRERPPRLPRPRPRPRWTPRP	0.0925
RRIRDRPPRLPRPRPRPDCAPRP	1.41
RRIRKRPPRLPRPRPRPIQMPRP	-0.107
RRIRDRPPRLPRPRPRPMNAPRP	-0.0396
RRIRRRPPRLPRPRPRPRRRPRP	0.778
RRIRPRPPRLPRPRPRPNGGPRP	-0.305
RRIRERPPRLPRPRPRPDMMPRP	0.0556
RRIRVRPPRLPRPRPRPPNCPRP	0.194
RRIRTRPPRLPRPRPRPYLTPRP	-0.171
RRIRLRPPRLPRPRPRPPVPPRP	0.374
RRIRHRPPRLPRPRPRPGPNPRP	0.813
RRIRMRPPRLPRPRPRPKCAPRP	2.89
RRIRFRPPRLPRPRPRPYWYPRP	-0.675
RRIRNRPPRLPRPRPRPTYWPRP	-0.101

Sequence	shrunken log2 fold change
RRIRPRPPRLPRPRPRPTLTPRP	1.22
RRIRIRPPRLPRPRPRPYKYPRP	-0.89
RRIRARPPRLPRPRPRPVGVPRP	0.528
RRIRMRPPRLPRPRPRPNIAPRP	0.397
RRIRDRPPRLPRPRPRPMQTPRP	0.0424
RRIRLRPPRLPRPRPRPWVHPRP	-0.3
RRIRLRPPRLPRPRPRPCAAPRP	0.236
RRIRRRPPRLPRPRPRPQSIPRP	-0.0196
RRIRFRPPRLPRPRPRPNDCPRP	-0.415
RRIRARPPRLPRPRPRPPKTPRP	0.12
RRIRARPPRLPRPRPRPHDQPRP	0.808
RRIRGRPPRLPRPRPRPPQPPRP	1.03
RRIRGRPPRLPRPRPRPQICPRP	0.156
RRIRMRPPRLPRPRPRPKSRPRP	0.0662
RRIRPRPPRLPRPRPRPSYCPRP	-0.387
RRIRRRPPRLPRPRPRPGWYPRP	0.205
RRIRVRPPRLPRPRPRPYRKPRP	-0.259
RRIRYRPPRLPRPRPRPHWLPRP	-0.0432
RRIRPRPPRLPRPRPRPQMRPRP	0.806
RRIRHRPPRLPRPRPRPVTVPRP	-0.179
RRIRARPPRLPRPRPRPLNPPRP	-0.111
RRIRQRPPRLPRPRPRPKKCPRP	-0.0485
RRIRTRPPRLPRPRPRPHYGPRP	-0.0891
RRIRVRPPRLPRPRPRPVYWPRP	0.0159
RRIRTRPPRLPRPRPRPSSQPRP	-0.153

Sequence	shrunken log2 fold change
RRIRSRPPRLPRPRPRPMHYPRP	-0.224
RRIRWRPPRLPRPRPRPKFKPRP	-0.00802
RRIRDRPPRLPRPRPRPMVGPRP	0.564
RRIRRRPPRLPRPRPRPFKFPRP	-0.0354
RRIRGRPPRLPRPRPRPWFCPRP	-0.444
RRIRHRPPRLPRPRPRPTISPRP	-0.495
RRIRRRPPRLPRPRPRPCNFPRP	-0.0159
RRIRPRPPRLPRPRPRPHHCPRP	-0.257
RRIRQRPPRLPRPRPRPKNLPRP	-0.186
RRIRWRPPRLPRPRPRPKMTPRP	0.175
RRIRCRPPRLPRPRPRPMLMPRP	0.0436
RRIRRRPPRLPRPRPRPINEPRP	-0.0486
RRIRRRPPRLPRPRPRPYQRPRP	-0.0429
RRIRTRPPRLPRPRPRPEVVPRP	0.292
RRIRFRPPRLPRPRPRPLPMPRP	0.142
RRIRMRPPRLPRPRPRPDVKPRP	0.343
RRIRTRPPRLPRPRPRPYTMPRP	-0.232
RRIRWRPPRLPRPRPRPFHYPRP	-2.18
RRIRSRPPRLPRPRPRPCEQPRP	0.000312
RRIRVRPPRLPRPRPRPLMNPRP	-0.649
RRIRLRPPRLPRPRPRPWGRPRP	-0.0734
RRIRHRPPRLPRPRPRPAARPRP	0.168
RRIRNRPPRLPRPRPRPVMTPRP	0.0556
RRIRLRPPRLPRPRPRPATSPRP	-0.149
RRIRVRPPRLPRPRPRPTQYPRP	0.166

Sequence	shrunken log2 fold change
RRIRYRPPRLPRPRPRPDWNPRP	-0.428
RRIRNRPPRLPRPRPRPLTDPRP	-0.193
RRIRQRPPRLPRPRPRPRDFPRP	0.984
RRIRKRPPRLPRPRPRPCNTPRP	-0.113
RRIRNRPPRLPRPRPRPDIQPRP	-0.0597
RRIRTRPPRLPRPRPRPLWSPRP	0.0357
RRIRNRPPRLPRPRPRPMSNPRP	0.0527
RRIRDRPPRLPRPRPRPMLWPRP	0.015
RRIRQRPPRLPRPRPRPVVGPRP	0.101
RRIRNRPPRLPRPRPRPCWRPRP	-0.174
RRIRTRPPRLPRPRPRPVMCPRP	-0.222
RRIRDRPPRLPRPRPRPIQMPRP	0.137
RRIRWRPPRLPRPRPRPSMEPRP	0.0397
RRIRTRPPRLPRPRPRPLAFPRP	2.19
RRIRSRPPRLPRPRPRPQYIPRP	-0.206
RRIRTRPPRLPRPRPRPYSKPRP	-0.565
RRIRWRPPRLPRPRPRPRGIPRP	0.234
RRIRDRPPRLPRPRPRPDSGPRP	-0.00436
RRIRFRPPRLPRPRPRPSYDPRP	-0.0248
RRIRYRPPRLPRPRPRPFACPRP	0.0731
RRIRYRPPRLPRPRPRPIAWPRP	-0.0381
RRIRQRPPRLPRPRPRPCNMPRP	0.00148
RRIRPRPPRLPRPRPRPLMVPRP	-0.0973
RRIRIRPPRLPRPRPRPSMVPRP	-0.654
RRIRIRPPRLPRPRPRPPYEPRP	-0.315

Sequence	shrunken log2 fold change
RRIRWRPPRLPRPRPRPDKMPRP	-0.0535
RRIRPRPPRLPRPRPRPKPVPRP	0.154
RRIRKRPPRLPRPRPRPHRLPRP	0.164
RRIRSRPPRLPRPRPRPWPGPRP	-0.139
RRIRERPPRLPRPRPRPVNLPRP	-0.441
RRIRMRPPRLPRPRPRPPPIPRP	1.47
RRIRPRPPRLPRPRPRPDKWPRP	-0.0254
RRIRHRPPRLPRPRPRPAAWPRP	0.465
RRIRFRPPRLPRPRPRPLCCPRP	-0.205
RRIRKRPPRLPRPRPRPDDLPRP	0.0928
RRIRYRPPRLPRPRPRPNNAPRP	-1.1
RRIRARPPRLPRPRPRPENHPRP	-0.102
RRIRGRPPRLPRPRPRPTCWPRP	0.764
RRIRGRPPRLPRPRPRPINLPRP	-0.0974
RRIRRRPPRLPRPRPRPCDSPRP	-0.396
RRIRERPPRLPRPRPRPYPCPRP	-0.00884
RRIRLRPPRLPRPRPRPLCQPRP	-0.125
RRIRWRPPRLPRPRPRPWCNPRP	-0.0973
RRIRYRPPRLPRPRPRPNSWPRP	-0.0916
RRIRKRPPRLPRPRPRPDRGPRP	0.0561
RRIRCRPPRLPRPRPRPRKTPRP	0.103
RRIRYRPPRLPRPRPRPYTMPRP	-0.301
RRIRRRPPRLPRPRPRPYMGPRP	0.00385
RRIRWRPPRLPRPRPRPCLVPRP	0.144
RRIRNRPPRLPRPRPRPILDPRP	-0.0452
